These results are taken from patent publication US20230265151A1, “GIP/GLP1 CO-AGONIST COMPOUNDS” (priority 2020, published 2023).

What all share (experiment): cell-based or functional assay
Test [1] has as its target human glucagon receptor (human, UniProt P47871 26-477).
Test [2] concerns the target human glucagon-like peptide-1 (GLP-1) receptor (human, UniProt P43220 24-463).
The target in test [3] is T1, human glucose-dependent insulinotropic polypeptide (GIP) receptor (human, UniProt P48546 22-466).
T1 sequence (looked up): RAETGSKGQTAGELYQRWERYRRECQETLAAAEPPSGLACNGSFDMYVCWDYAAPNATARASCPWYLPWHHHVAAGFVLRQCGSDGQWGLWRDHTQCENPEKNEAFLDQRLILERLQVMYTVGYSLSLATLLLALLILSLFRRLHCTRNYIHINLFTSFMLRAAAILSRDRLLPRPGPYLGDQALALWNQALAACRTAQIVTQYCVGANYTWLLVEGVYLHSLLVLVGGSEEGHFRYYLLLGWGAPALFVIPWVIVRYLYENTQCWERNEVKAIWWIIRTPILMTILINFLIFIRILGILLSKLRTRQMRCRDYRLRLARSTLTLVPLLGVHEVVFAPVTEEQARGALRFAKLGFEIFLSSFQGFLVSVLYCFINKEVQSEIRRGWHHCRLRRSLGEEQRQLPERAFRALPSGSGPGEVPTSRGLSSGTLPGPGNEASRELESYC

Test [4] addresses human glucagon receptor (human, UniProt P47871 26-477). This is another data set of the same source.
In test [5] the target is T2, human GIP receptor (human, UniProt P48546 22-466).
T2 sequence (looked up): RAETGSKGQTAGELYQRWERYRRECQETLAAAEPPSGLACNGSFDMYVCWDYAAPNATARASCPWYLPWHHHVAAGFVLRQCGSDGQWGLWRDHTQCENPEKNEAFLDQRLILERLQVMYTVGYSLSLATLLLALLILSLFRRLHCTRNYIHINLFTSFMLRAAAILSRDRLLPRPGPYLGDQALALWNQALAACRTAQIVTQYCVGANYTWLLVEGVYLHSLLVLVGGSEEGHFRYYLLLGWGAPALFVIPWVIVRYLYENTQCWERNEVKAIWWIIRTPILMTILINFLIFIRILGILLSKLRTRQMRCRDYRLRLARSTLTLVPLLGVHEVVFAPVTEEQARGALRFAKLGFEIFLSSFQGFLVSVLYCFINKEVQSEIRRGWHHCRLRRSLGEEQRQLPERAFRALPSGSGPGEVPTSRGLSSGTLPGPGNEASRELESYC

Where only a bound is given, the exact number is not on record here.

B1: Example 208 (peptide)
peptide: YXEGTXTSDXSIXLDXKAQXEFIXXLIKGGPSSGAPPPS
modifications: Aib2, αMeF(2F)6, 4Pal10, αMeL13, Orn16, K17(Z), Aib20, D-Glu24, αMeY25, K28(Z), C-terminal NH2; Z = AEEA-(γ-Glu)-(4-(4-tert-butylphenyl)butanoyl)
On to B1, for which the “cAMP EC50” value was over 9950 nM in test [1], 0.238 nM in test [2] and 0.018 nM in test [3].

B2: Y-Aib-EGT-αMeF(2F)-TSD-4Pal-SI-αMeL-LD-Orn-IAQ-Aib-EFIK((εK)-(εK)-(γ-Glu)-CO-(CH2)12-CO2H)-αMeY-LIEGGK((εK)-(εK)-(γ-Glu)-CO-(CH2)12-CO2H)SSGAPPPS-NH2 (peptide)
peptide: YXEGTXTSDXSIXLDXIAQXEFIKXLIEGGKSSGAPPPS
modifications: Aib2, αMeF(2F)6, 4Pal10, αMeL13, Orn16, Aib20, αMeY25; acylated K24, K31 (groups as in name); C-terminal amide
Regarding B2, the “cAMP EC50 (1.0% HSA)” value in test [4] is over 9950 nM; in test [5], 1.06 nM.

B3: Example 214 (peptide)
peptide: YXEGTXTSDXXIXLDXKAQXEFIKXLIEGGPSSGAPPPS
modifications: Aib2, αMeF(2F)6, 4Pal10, αMeS11, αMeL13, Orn16, K17(Z), Aib20, K24(Z), αMeY25, C-terminal NH2; Z = AEEA2-(γ-Glu)-CO-(CH2)12-CO2H
On to B3, for which the “cAMP EC50” value in test [1] was over 9950 nM; in test [2] it was 0.618 nM; in test [3], 0.0351 nM. Also, the results for the “cAMP Emax” value in test [2] and in test [3] were 93.2% and 93.7%, respectively.

B4: Example 211 (peptide)
peptide: YXEGTXTSDXXIXLDXKAQXEFIXXLIEGGKSSGAPPPS
modifications: Aib2, αMeF(2F)6, 4Pal10, Ac5c11, αMeL13, Orn16, K17(Z), Aib20, D-Glu24, αMeY25, K31(Z), C-terminal NH2; Z = AEEA2-(γ-Glu)-CO-(CH2)12-CO2H
In the case of B4, the figures for the “cAMP EC50” value in test [1], in test [2] and in test [3] were over 9950 nM, 3.55 nM and 0.0465 nM, respectively. Moreover, the “cAMP Emax” value in test [2] turned out to be 93.1%; in test [3], 91.6%.

B5: Y-Aib-EGT-αMeF(2F)-TSD-4Pal-SI-αMeL-LD-Orn-IAQ-Aib-K((2-[2-(2-Amino-ethoxy)-ethoxy]-acetyl)2-(γ-Glu)-CO-(CH2)12-CO2H)FI-(D-Glu)-αMeY-LIEGGK((2-[2-(2-Amino-ethox … (peptide)
peptide: YXEGTXTSDXSIXLDXIAQXKFIXXLIEGGKSSGAPPPS
modifications: Aib2, αMeF(2F)6, 4Pal10, αMeL13, Orn16, Aib20, D-Glu24, αMeY25; acylated K21, K31 (groups as in name); C-terminal amide
In the case of B5, the results for the “cAMP EC50 (1.0% HSA)” value in test [4] and in test [5] were over 9950 nM and 2.19 nM, respectively.

B6: Example 202 (peptide)
peptide: YXEGTXTSDXXIXLDXKAQXEFIXXLIEGGKSSGAPPPS
modifications: Aib2, αMeF(2F)6, 4Pal10, Tle11, αMeL13, Orn16, K17(Z), Aib20, D-Glu24, αMeY25, K31(Z), C-terminal NH2; Z = AEEA2-(γ-Glu)-CO-(CH2)12-CO2H
Take B6: the “cAMP EC50” value in test [1] is over 9950 nM; in test [2] it was 0.944 nM; in test [3] it was 0.057 nM. Moreover, the “cAMP Emax” value in test [2] amounted to 92.2%; in test [3], 86%.

B7: Example 224 (peptide)
peptide: YXEGTXTSDXSIXLDXKAQXEFIXXLIKGGPSSGAPPPS
modifications: Aib2, αMeF(2F)6, 4Pal10, αMeL13, Orn16, K17(Z), Aib20, D-Glu24, αMeY25, K28(Z), C-terminal NH2; Z = AEEA3-(γ-Glu)-CO-(CH2)12-CO2H
Regarding B7, the entries for the “cAMP EC50” value in test [1], in test [2] and in test [3] were over 9950 nM, 7.51 nM and 0.0374 nM, respectively. For the same molecule, the “cAMP Emax” value in test [2] stood at 88.4%.

B8: Y-Aib-EGT-αMeF(2F)-TSD-4Pal-SI-αMeL-LD-Orn-IAQ-Aib-EFI-(D-Glu)-αMeY-LIK((2-[2-(2-Amino-ethoxy)-ethoxy]-acetyl)2-(γ-Glu)-CO-(CH2)14-CH3)GGK((2-[2-(2-Amino-ethoxy … (peptide)
peptide: YXEGTXTSDXSIXLDXIAQXEFIXXLIKGGKSSGAPPPS
modifications: Aib2, αMeF(2F)6, 4Pal10, αMeL13, Orn16, Aib20, D-Glu24, αMeY25; acylated K28, K31 (groups as in name); C-terminal amide
For the molecule B8, the “cAMP EC50 (1.0% HSA)” value is over 9950 nM in test [4] and 1.2 nM in test [5].

B9: Y-Aib-EGT-αMeF(2F)-TSD-4Pal-SI-αMeL-LD-Orn-IAQ-Aib-EFIK((2-[2-(2-Amino-ethoxy)-ethoxy]-acetyl)2-CO-(CH2)12-CO2H)-αMeY-LIEGGK((2-[2-(2-Amino-ethoxy)-ethoxy]-acet … (peptide)
peptide: YXEGTXTSDXSIXLDXIAQXEFIKXLIEGGKSSGAPPPS
modifications: Aib2, αMeF(2F)6, 4Pal10, αMeL13, Orn16, Aib20, αMeY25; acylated K24, K31 (groups as in name); C-terminal amide
Regarding B9, the results for the “cAMP EC50 (1.0% HSA)” value in test [4] and in test [5] were over 9950 nM and 1.47 nM, respectively.

B10: Y-Aib-EGT-αMeF-TSD-4Pal-SI-αMeL-LD-Orn-K((2-[2-(2-Amino-ethoxy)-ethoxy]-acetyl)2-(γ-Glu)-CO-(CH2)10-CH3)AQ-Aib-E-αMeF-I-(D-Glu)-αMeY-LIEGGK((2-[2-(2-Amino-ethox … (peptide)
peptide: YXEGTXTSDXSIXLDXKAQXEXIXXLIEGGKSSGAPPPS
modifications: Aib2, αMeF6, 4Pal10, αMeL13, Orn16, Aib20, αMeF22, D-Glu24, αMeY25; acylated K17, K31 (groups as in name); C-terminal amide
Consider B10, for which the “cAMP EC50 (1.0% HSA)” value is over 9950 nM in test [4] and 1.24 nM in test [5].

B11: Y-Aib-EGT-αMeF(2F)-TSD-4Pal-SI-αMeL-LD-Orn-IAQ-Aib-EFIK((2-[2-(2-Amino-ethoxy)-ethoxy]-acetyl)2-(γ-Glu)-CO-(CH2)12-CO2H)-αMeY-LIEGGK((2-[2-(2-Amino-ethoxy)-etho … (peptide)
peptide: YXEGTXTSDXSIXLDXIAQXEFIKXLIEGGKSSGAPPPS
modifications: Aib2, αMeF(2F)6, 4Pal10, αMeL13, Orn16, Aib20, αMeY25; acylated K24, K31 (groups as in name); C-terminal amide
For the molecule B11, the “cAMP EC50 (1.0% HSA)” value in test [4] was over 9950 nM; in test [5], 3.07 nM.

B12: Example 213 (peptide)
peptide: YXEGTXTSDXXIXLDXKAQXEFIXXLIEGGKSSGAPPPS
modifications: Aib2, αMeF(2F)6, 4Pal10, αMeS11, αMeL13, Orn16, K17(Z), Aib20, D-Glu24, αMeY25, K31(Z), C-terminal NH2; Z = AEEA2-(γ-Glu)-CO-(CH2)12-CO2H
As to B12, the “cAMP EC50” value is over 9950 nM in test [1], 2.14 nM in test [2] and 0.0275 nM in test [3]. In addition, the entries for the “cAMP Emax” value in test [2] and in test [3] were 94.8% and 92%, respectively.

B13: Example 207 (peptide)
peptide: YXEGTXTSDXSIXLDXKAQXKFIXXLIEGGPSSGAPPPS
modifications: Aib2, αMeF(2F)6, 4Pal10, αMeL13, Orn16, K17(Z), Aib20, K21(Z), D-Glu24, αMeY25, C-terminal NH2; Z = AEEA-(γ-Glu)-(4-(4-tert-butylphenyl)butanoyl)
Turning to B13, the “cAMP EC50” value in test [1] is over 9950 nM; in test [2], 0.209 nM; in test [3], 0.019 nM.

B14: Y-Aib-EGT-αMeF(2F)-TSD-4Pal-SI-αMeL-LD-Orn-IAQ-Aib-EFI-(D-Glu)-αMeY-LIK((2-[2-(2-Amino-ethoxy)-ethoxy]-acetyl)2-(γ-Glu)-CO-(CH2)12-CO2H)GGK((2-[2-(2-Amino-ethox … (peptide)
peptide: YXEGTXTSDXSIXLDXIAQXEFIXXLIKGGKSSGAPPPS
modifications: Aib2, αMeF(2F)6, 4Pal10, αMeL13, Orn16, Aib20, D-Glu24, αMeY25; acylated K28, K31 (groups as in name); C-terminal amide
Take B14: the entries for the “cAMP EC50 (1.0% HSA)” value in test [4] and in test [5] were over 9950 nM and 1.66 nM, respectively.

B15: Y-Aib-EGT-αMeF(2F)-TSD-1Nal-SI-αMeL-LD-Orn-K((2-[2-(2-Amino-ethoxy)-ethoxy]-acetyl)2-(γ-Glu)-CO-(CH2)12-CO2H)AQ-Aib-EFI-(D-Glu)-αMeY-LIEGGK((2-[2-(2-Amino-ethox … (peptide)
peptide: YXEGTXTSDXSIXLDXKAQXEFIXXLIEGGKSSGAPPPS
modifications: Aib2, αMeF(2F)6, 1Nal10, αMeL13, Orn16, Aib20, D-Glu24, αMeY25; acylated K17, K31 (groups as in name); C-terminal amide
B15: the results for the “cAMP EC50 (1.0% HSA)” value in test [4] and in test [5] were over 9950 nM and 6.75 nM, respectively.

B16: Y-Aib-EGT-αMeF-TSD-4Pal-SI-αMeL-LD-Orn-K((2-[2-(2-Amino-ethoxy)-ethoxy]-acetyl)2-(γ-Glu)-CO-(CH2)12-CO2H)AQ-Aib-E-αMeF-I-(D-Glu)-αMeY-LIEGGK((2-[2-(2-Amino-etho … (peptide)
peptide: YXEGTXTSDXSIXLDXKAQXEXIXXLIEGGKSSGAPPPS
modifications: Aib2, αMeF6, 4Pal10, αMeL13, Orn16, Aib20, αMeF22, D-Glu24, αMeY25; acylated K17, K31 (groups as in name); C-terminal amide
As to B16, the figures for the “cAMP EC50 (1.0% HSA)” value in test [4] and in test [5] were over 9950 nM and 0.777 nM, respectively.

B17: Y-Aib-EGT-αMeF(2F)-TSD-4Pal-SI-αMeL-LD-Orn-IAQ-Aib-EFIK((εK)-(γ-Glu)-CO-(CH2)12-CO2H)-αMeY-LIEGGK((εK)-(γ-Glu)-CO-(CH2)12-CO2H)SSGAPPPS-NH2 (peptide)
peptide: YXEGTXTSDXSIXLDXIAQXEFIKXLIEGGKSSGAPPPS
modifications: Aib2, αMeF(2F)6, 4Pal10, αMeL13, Orn16, Aib20, αMeY25; acylated K24, K31 (groups as in name); C-terminal amide
Take B17: the “cAMP EC50 (1.0% HSA)” value in test [4] is over 9950 nM; in test [5] it was 2.06 nM.
